Data taken from US20160002343A1 (AbbVie / Abbott, published 2016).

T1: Repulsive guidance molecule A (Mus musculus (Mouse), UniProt Q6PCX7 48-427, GPI anchor at the C-terminus after removal of 428-454. Autocatalytic cleavage between 169 and 170 may split the protein into two disulfide-linked fragments. The letters carry neither.)
T1 sequence: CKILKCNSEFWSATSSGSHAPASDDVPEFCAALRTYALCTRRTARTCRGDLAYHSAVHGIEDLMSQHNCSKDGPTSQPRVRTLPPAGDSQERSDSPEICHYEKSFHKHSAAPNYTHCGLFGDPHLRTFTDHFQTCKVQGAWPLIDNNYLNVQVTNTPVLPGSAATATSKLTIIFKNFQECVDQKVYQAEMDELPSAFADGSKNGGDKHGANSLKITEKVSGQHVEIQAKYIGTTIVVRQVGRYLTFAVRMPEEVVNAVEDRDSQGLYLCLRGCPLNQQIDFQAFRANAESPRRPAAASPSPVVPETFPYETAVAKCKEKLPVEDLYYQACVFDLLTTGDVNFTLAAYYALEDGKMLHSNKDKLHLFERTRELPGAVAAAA


target: T2, mouse Transferrin Receptor overexpressed on Hek 293 cells (mouse, UniProt Q62351 1-763); assay: cell-based MSD-ECL binding, Hek293/mTfR cells
T2 construct: whole, on cells; also called mTfR; Hek293/mTfR
T2 sequence (Q62351 whole entry): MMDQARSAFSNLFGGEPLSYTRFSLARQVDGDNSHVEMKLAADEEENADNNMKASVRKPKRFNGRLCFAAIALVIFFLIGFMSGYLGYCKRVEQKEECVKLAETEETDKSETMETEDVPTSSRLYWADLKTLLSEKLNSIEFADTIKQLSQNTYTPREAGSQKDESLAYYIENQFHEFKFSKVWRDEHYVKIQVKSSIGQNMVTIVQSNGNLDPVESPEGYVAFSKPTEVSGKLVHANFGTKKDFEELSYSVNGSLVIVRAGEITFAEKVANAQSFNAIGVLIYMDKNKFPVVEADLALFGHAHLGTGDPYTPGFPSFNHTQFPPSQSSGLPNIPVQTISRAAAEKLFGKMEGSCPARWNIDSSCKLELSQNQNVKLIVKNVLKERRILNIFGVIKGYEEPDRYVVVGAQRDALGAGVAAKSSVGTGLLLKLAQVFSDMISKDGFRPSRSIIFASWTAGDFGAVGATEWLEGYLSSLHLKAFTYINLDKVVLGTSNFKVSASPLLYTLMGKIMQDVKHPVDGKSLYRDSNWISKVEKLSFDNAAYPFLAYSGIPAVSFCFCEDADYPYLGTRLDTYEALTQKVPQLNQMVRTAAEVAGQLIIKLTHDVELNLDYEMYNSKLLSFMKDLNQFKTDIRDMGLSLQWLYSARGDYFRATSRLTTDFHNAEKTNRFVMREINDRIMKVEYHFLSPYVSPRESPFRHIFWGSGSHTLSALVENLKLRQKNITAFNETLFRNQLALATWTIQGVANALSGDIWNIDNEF
Method: Meso-scale Discovery (MSD) Electrochemiluminescence (ECL) assays to screen for antibodies or DVD-Ig proteins that bind a desired target antigen expressed on the cell surface were performed as follows: Hek 293 cells overexpressing mouse Transferrin Receptor were added onto MSD 96-well plates (MSD Cat# L11 XB-3, lot#2290-EA). The plates which were blocked using blocking buffer (30% FBS Serum (Hyclone) in PBS) at 37° C. for 1 hour. After incubating at room temperature (RT) for 30 minutes with mild agitation, plates were washed with DPBS 3 times and Abs/DVD-Ig proteins (10,000 ng/ml) were added. After incubating for 1 hour at RT, plates were washed 3 times with DPBS and 25 μl of Goat anti-human Sulfo TAG (MSD Cat# R32AC-, Lot# W001162) at 1 μg/ml was added. Following incubation at RT for 1 hour, plates were washed and MSD read buffer was added before reading on a MSD SECTOR Imager 6000. EC50 values were obtained using Xlfit4 software package.

binding result | Binder
no binding (tested: 10,000 ng/ml) | DVD2366 (bispecific antibody, DVD-Ig) VH-VH: EVQLLESGGGLVQPGGSLRLSCAASGFTFSNYGMSWVRQAPGKGLEWVASIRSGGGRTYYSDNVKGRFTISRDNSKNTLYLQMNSLRAEDTAVYYCVRYDHYSGSSDYWGQGTLVTVSSASTKGPQVQLVQSGAEVKKPGASVKVSCKASGFTFSNYGMHWIRQAPGQGLEWIAMIYYDSSKMNYADTVKGRFTITRDNSTNTLYMELSSLRSEDTAVYYCAVPTSHYVVDVWGQGTTVTVSS VL-VL: DVVMTQSPLSLPVTPGEPASISCKSSQSLLDSDGKTYLNWLLQKPGQSPQRLIYLVSKLDSGVPDRFSGSGSGTDFTLKISRVEAEDVGVYYCWQGTHFPRTFGQGTKVEIKRTVAAPEIVMTQSPATLSVSPGERATLSCQASQDIGNWLAWYQQKPGQSPRLLIYGATSLADGVPARFSGSRSGTEFTLTISSLQSEDFAVYYCLQAYNTPWTFGGGTKVEIK

target: Repulsive guidance molecule A (Mus musculus (Mouse)) (UniProt Q6PCX7); assay: cell-based or functional assay

Binder | BMP Assay IC50
RGMA(AE12-1)-SS-TfR(AB402) (bispecific antibody, part only; not given: Inner anti-TfR domains, linkers, constant regions, not shown: a dimerising Fc or GST) heavy, part: EVQLVQSGAEVKKPGASVKVSCKASGYTFTSHGISWVRQAPGQGLDWMGWISPYSGNTNYAQKLQGRVTMTTDTSTSTAYMELSSLRSEDTAVYYCARVGSGPYYYMDVWGQGTLVTVSS light, part: QSALTQPRSVSGSPGQSVTISCTGTSSSVGDSIYVSWYQQHPGKAPKLMLYDVTKRPSGVPDRFSGSKSGNTASLTISGLQAEDEADYYCCSYAGTDTLFGGGTKVTVLG | 0.436 nM
TfR(AB405)-LL-RGMA(AE12-1) (bispecific antibody, part only; not given: Outer anti-TfR domains, linkers, constant regions, not shown: a dimerising Fc or GST) heavy, part: EVQLVQSGAEVKKPGASVKVSCKASGYTFTSHGISWVRQAPGQGLDWMGWISPYSGNTNYAQKLQGRVTMTTDTSTSTAYMELSSLRSEDTAVYYCARVGSGPYYYMDVWGQGTLVTVSS light, part: QSALTQPRSVSGSPGQSVTISCTGTSSSVGDSIYVSWYQQHPGKAPKLMLYDVTKRPSGVPDRFSGSKSGNTASLTISGLQAEDEADYYCCSYAGTDTLFGGGTKVTVLG | 0.701 nM

The next lines start with the values.

BMP Assay IC50 | Binder
0.014 nM | RGMA(AE12-1)-GS-TfR(AB402) (bispecific antibody, part only; not given: anti-TfR domains, constants, not shown: a dimerising Fc or GST) heavy, part: EVQLVQSGAEVKKPGASVKVSCKASGYTFTSHGISWVRQAPGQGLDWMGWISPYSGNTNYAQKLQGRVTMTTDTSTSTAYMELSSLRSEDTAVYYCARVGSGPYYYMDVWGQGTLVTVSSGGGGSGGGGS light, part: QSALTQPRSVSGSPGQSVTISCTGTSSSVGDSIYVSWYQQHPGKAPKLMLYDVTKRPSGVPDRFSGSKSGNTASLTISGLQAEDEADYYCCSYAGTDTLFGGGTKVTVLGGGSGGGGSG
3.12 nM | TfR(AB405)-GS-RGMA(AE12-1) (bispecific antibody, part only; not given: anti-TfR domains, constants, not shown: a dimerising Fc or GST) heavy, part: GGGGSGGGGSEVQLVQSGAEVKKPGASVKVSCKASGYTFTSHGISWVRQAPGQGLDWMGWISPYSGNTNYAQKLQGRVTMTTDTSTSTAYMELSSLRSEDTAVYYCARVGSGPYYYMDVWGQGTLVTVSS light, part: GGSGGGGSGQSALTQPRSVSGSPGQSVTISCTGTSSSVGDSIYVSWYQQHPGKAPKLMLYDVTKRPSGVPDRFSGSKSGNTASLTISGLQAEDEADYYCCSYAGTDTLFGGGTKVTVLG

target: T1, Repulsive guidance molecule A; assay: cell-based or functional assay

Binder | BMP Assay IC50
RGMA(AE12-1)-LS-TfR(AB403) (bispecific antibody) VH: EVQLVQSGAEVKKPGASVKVSCKASGYTFTSHGISWVRQAPGQGLDWMGWISPYSGNTNYAQKLQGRVTMTTDTSTSTAYMELSSLRSEDTAVYYCARVGSGPYYYMDVWGQGTLVTVSSASTKGPSVFPLAPEVQLVESGGGLVQPGGSLRLSCAASGFTFSNYGMHWIRQAPGKGLEWIAMIYYDSSKMNYADTVKGRFTISRDNAKNSLYLQMNSLRAEDTAVYYCAVPTSHYVVDVWGQGTTVTVSS VL: QSALTQPRSVSGSPGQSVTISCTGTSSSVGDSIYVSWYQQHPGKAPKLMLYDVTKRPSGVPDRFSGSKSGNTASLTISGLQAEDEADYYCCSYAGTDTLFGGGTKVTVLGQPKAAPEIVMTQSPATLSVSPGERATLSCQASQDIGNWLAWYQQKPGQSPRLLIYGATSLADGVPARFSGSRSGTEFTLTISSLQSEDFAVYYCLQAYNTPWTFGGGTKVEIK | < 0.025 nM
RGMA(AE12-1)-SS-TfR(AB403) (bispecific antibody) VH: EVQLVQSGAEVKKPGASVKVSCKASGYTFTSHGISWVRQAPGQGLDWMGWISPYSGNTNYAQKLQGRVTMTTDTSTSTAYMELSSLRSEDTAVYYCARVGSGPYYYMDVWGQGTLVTVSSASTKGPEVQLVESGGGLVQPGGSLRLSCAASGFTFSNYGMHWIRQAPGKGLEWIAMIYYDSSKMNYADTVKGRFTISRDNAKNSLYLQMNSLRAEDTAVYYCAVPTSHYVVDVWGQGTTVTVSS VL: QSALTQPRSVSGSPGQSVTISCTGTSSSVGDSIYVSWYQQHPGKAPKLMLYDVTKRPSGVPDRFSGSKSGNTASLTISGLQAEDEADYYCCSYAGTDTLFGGGTKVTVLGQPKAAPEIVMTQSPATLSVSPGERATLSCQASQDIGNWLAWYQQKPGQSPRLLIYGATSLADGVPARFSGSRSGTEFTLTISSLQSEDFAVYYCLQAYNTPWTFGGGTKVEIK | 1.18 nM
RGMA (AE12-1) (antibody, V domains shown) VH: EVQLVQSGAEVKKPGASVKVSCKASGYTFTSHGISWVRQAPGQGLDWMGWISPYSGNTNYAQKLQGRVTMTTDTSTSTAYMELSSLRSEDTAVYYCARVGSGPYYYMDVWGQGTLVTVSS VL: QSALTQPRSVSGSPGQSVTISCTGTSSSVGDSIYVSWYQQHPGKAPKLMLYDVTKRPSGVPDRFSGSKSGNTASLTISGLQAEDEADYYCCSYAGTDTLFGGGTKVTVLG | 0.25 nM

More lines, now with the values ahead:

BMP Assay IC50 | Binder
0.73 nM | TfR(AB405)-SL-RGMA(AE12-1) (bispecific antibody) VH: QVQLVQSGAEVKKPGASVKVSCKASGFTFSNYGMHWIRQAPGQGLEWIAMIYYDSSKMNYADTVKGRFTITRDNSTNTLYMELSSLRSEDTAVYYCAVPTSHYVVDVWGQGTTVTVSSASTKGPEVQLVQSGAEVKKPGASVKVSCKASGYTFTSHGISWVRQAPGQGLDWMGWISPYSGNTNYAQKLQGRVTMTTDTSTSTAYMELSSLRSEDTAVYYCARVGSGPYYYMDVWGQGTLVTVSS VL: EIVMTQSPATLSVSPGERATLSCQASQDIGNWLAWYQQKPGQSPRLLIYGATSLADGVPARFSGSRSGTEFTLTISSLQSEDFAVYYCLQAYNTPWTFGGGTKVEIKRTVAAPSVFIFPPQSALTQPRSVSGSPGQSVTISCTGTSSSVGDSIYVSWYQQHPGKAPKLMLYDVTKRPSGVPDRFSGSKSGNTASLTISGLQAEDEADYYCCSYAGTDTLFGGGTKVTVL
< 0.025 nM | RGMA(AE12-1)-GS-TfR(AB403) DVD-Ig protein (bispecific antibody, human IgG1, not shown: a dimerising Fc or GST) heavy: EVQLVQSGAEVKKPGASVKVSCKASGYTFTSHGISWVRQAPGQGLDWMGWISPYSGNTNYAQKLQGRVTMTTDTSTSTAYMELSSLRSEDTAVYYCARVGSGPYYYMDVWGQGTLVTVSSGGGGSGGGGSEVQLVESGGGLVQPGGSLRLSCAASGFTFSNYGMHWIRQAPGKGLEWIAMIYYDSSKMNYADTVKGRFTISRDNAKNSLYLQMNSLRAEDTAVYYCAVPTSHYVVDVWGQGTTVTVSS light: QSALTQPRSVSGSPGQSVTISCTGTSSSVGDSIYVSWYQQHPGKAPKLMLYDVTKRPSGVPDRFSGSKSGNTASLTISGLQAEDEADYYCCSYAGTDTLFGGGTKVTVLGGGSGGGGSGEIVMTQSPATLSVSPGERATLSCQASQDIGNWLAWYQQKPGQSPRLLIYGATSLADGVPARFSGSRSGTEFTLTISSLQSEDFAVYYCLQAYNTPWTFGGGTKVEIKR
